# From PMC7545097, “Mapping the native interaction surfaces of PREP1 with PBX1 by cross-linking mass-spectrometry and mutagenesis” (Scientific Reports, 2020)
# B1: N-terminal GST-fused wild-type PREP1 [not stated] / PBX1_(1-430), wild-type recombinant [human] (parent complex)
# chain 1: MMATQTLSIDSYQDGQQMQVVTELKTEQDPNCSEPDAEGVSPPPVESQTPMDVDKQAIYRHPLFPLLALLFEKCEQSTQGSEGTTSASFDVDIENFVRKQEKEGKPFFCEDPETDNLMVKAIQVLRIHLLELEKVNELCKDFCSRYIACLKTKMNSETLLSGEPGSPYSPVQSQQIQSAITGTISPQGIVVPASALQQGNVAMATVAGGTVYQPVTVVTPQGQVVTQTLSPGTIRIQNSQLQLQLNQDLSILHQDDGSSKNKRGVLPKHATNVMRSWLFQHIGHPYPTEDEKKQIAAQTNLTLLQVNNWFINARRRILQPMLDSSCSETPKTKKKTAQNRPVQRFWPDSIASGVAQPPPSELTMSEGAVVTITTPVNMNVDSLQSLSSDGATLAVQQVMMAGQSEDESVDSTEEDAGALAPAHISGLVLENSDSLQ
# chain 2: MDEQPRLMHSHAGVGMAGHPGLSQHLQDGAGGTEGEGGRKQDIGDILQQIMTITDQSLDEAQARKHALNCHRMKPALFNVLCEIKEKTVLSIRGAQEEEPTDPQLMRLDNMLLAEGVAGPEKGGGSAAAAAAAAASGGAGSDNSVEHSDYRAKLSQIRQIYHTELEKYEQACNEFTTHVMNLLREQSRTRPISPKEIERMVSIIHRKFSSIQMQLKQSTCEAVMILRSRFLDARRKRRNFNKQATEILNEYFYSHLSNPYPSEEAKEELAKKCGITVSQVSNWFGNKRIRYKKNIGKFQEEANIYAAKTAVTATNVSAHGSQANSPSTPNSAGSSSSFNMSNSGDLFMSVQSLNGDSYQGAQVGANVQSQVDTLRHVISQTGGYSDGLAASQMYSPQGISANGGWQDATTPSSVTSPTEGPGSVHSDTSN
# B2: PBX1_(1-430), wild-type recombinant [human] / PREP1_(1-436), wild-type recombinant (TR-FIA) [not stated] (parent complex)
# chain 1: B1 chain 2
# chain 2: B1 chain 1
# Variants of: B1
# Experiment: TR-FIA; parent: 1; read off a plot
row,ratio to parent,Variant
1,~0.88,chain 1 I251A
2,~0.58,"chain 1 L63A, chain 1 L66A, chain 1 L67A, chain 1 L70A"
3,~0.6,chain 1 L63A

# Variants of: B1
# Experiment: ELISA; PBX1 0.5 µM (highest point of the titration); GST control signal subtracted; parent: 0.8; read off a plot
row,response,Variant
1,"~0.13 Abs, 495 nm","chain 1 L63A, chain 1 L66A, chain 1 L67A, chain 1 L70A"

# Variants of: B2
# Experiment: TR-FIA; parent: 1; read off a plot
row,Variant,ratio to parent
1,chain 1 I43A,~1
2,chain 1 I53A,~0.93
3,"chain 1 I43A, chain 1 I50A",~0.84
4,"chain 1 I43A, chain 1 I46A",~0.79
5,chain 1 L77A,~0.63
6,"chain 1 I43A, chain 1 I46A, chain 1 I50A",~0.8
7,chain 1 I46A,~0.9
8,chain 1 L47A,~0.75
9,"chain 1 L77A, chain 1 V80A",~0.42
10,"chain 1 I50A, chain 1 I53A",~0.83
11,"chain 1 I197A, chain 1 I204A",~0.64
12,"chain 1 L77A, chain 1 I84A",~0.46
13,chain 1 I50A,~0.62
14,chain 1 I84A,~0.56

# Second part, the variant after the results:
row,ratio to parent,Variant
1,~0.66,chain 1 L113A
2,~0.73,chain 1 L108A
3,~0.71,chain 1 L105A
4,~0.34,"chain 1 L77A, chain 1 V80A, chain 1 L81A"
5,~0.52,chain 1 L81A
6,~0.62,"chain 1 L105A, chain 1 L108A"
7,~0.45,chain 1 V80A
8,~0.39,"chain 1 V80A, chain 1 L81A"
9,~0.66,"chain 1 L105A, chain 1 L108A, chain 1 L113A"
